Data: article PMC5798305

Target: naked mole-rat ASIC1b (naked mole-rat)

pH EC50 of proton-gated currents, whole-cell patch clamp of CHO cells cotransfected with nmrASIC3 + nmrASIC1b: 5.58 pH
Substance: naked mole-rat ASIC3 (natural protein)
